Laboratory results reported in paper PMC7367482, “An Erg11 lanosterol 14-α-demethylase-Arv1 complex is required for Candida albicans virulence” (PLoS ONE, 2020).

Biological target: T1, ScErg28-Cub (S. cerevisiae, UniProt P40030 1-148)
T1 construct: Erg28 of S. cerevisiae, scaffold of the ergosome; Cub vector pCYC-BAIT-Cub-PLV; source: split-ubiquitin two-hybrid fusion, S. cerevisiae L40
T1 sequence: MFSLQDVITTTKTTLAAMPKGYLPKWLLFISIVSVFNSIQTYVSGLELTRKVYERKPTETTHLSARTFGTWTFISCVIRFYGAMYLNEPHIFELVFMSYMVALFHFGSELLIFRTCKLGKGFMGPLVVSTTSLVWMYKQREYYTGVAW
Test: two-hybrid; split-ubiquitin two-hybrid in S. cerevisiae L40; Cub-PLV and NubG fusions; growth on Trp- Leu- His- plates after 48 hr and >3-fold β-galactosidase activity over the negative control
Conditions: partners not purified

B1: ScErg27-NubG (natural protein)
chain: MNRKVAIVTGTNSNLGLNIVFRLIETEDTNVRLTIVVTSRTLPRVQEVINQIKDFYNKSGRVEDLEIDFDYLLVDFTNMVSVLNAYYDINKKYRAINYLFVNAAQGIFDGIDWIGAVKEVFTNPLEAVTNPTYKIQLVGVKSKDDMGLIFQANVFGPYYFISKILPQLTRGKAYIVWISSIMSDPKYLSLNDIELLKTNASYEGSKRLVDLLHLATYKDLKKLGINQYVVQPGIFTSHSFSEYLNFFTYFGMLCLFYLARLLGSPWHNIDGYKAANAPVYVTRLANPNFEKQDVKYGSATSRDGMPYIKTQEIDPTGMSDVFAYIQKKKLEWDEKLKDQIVETRTPI
notes: Erg27 of S. cerevisiae; Nub vector pADH-PREY-2HA-NubG; source: split-ubiquitin two-hybrid fusion, S. cerevisiae L40
fold increase in β-galactosidase activity over the negative interaction control: 15 fold
